{"source": "patent US20070036810A1", "about": "“Cyclic amp response element activator proteins and uses related thereto” (priority 2003, published 2007)", "format_in_all_cases": "cell-based", "key": {"[1]": {"tested_on": "GAL4 DNA binding sites (UAS-Luc, pFR-Luc reporter)", "assay": "GAL4 DNA binding domain fusion transactivation assay (pFR-Luc) in HEK 293 cells", "details": "normalized to pCMV-BD vector", "excerpt": "To determine if CREAP proteins can act as a transcription activators, various regions of all 3 CREAP homologs (amino acids 300-650 of CREAP1, amino acids 296-694 of CREAP2 and amino acids 335-635 of CREAP3) were expressed as fusion proteins with the DNA binding domain of GAL4 and tested for the ability to activate expression of a reporter gene linked to GAL4 protein binding sequences (UAS-Luc (pFR-Luc reporter). Briefly, the indicated regions of CREAP1, CREAP2 and CREAP3 were amplified by PCR and subcloned in frame into pCMV-BD vector (Stratagene) encoding GAL4 DNA binding domain. Selected plasmids and empty vector (pCMV-SPORT6) were transfected into HEK 293 cells at 75 ng/well using Fugene6 transfection reagent (Roche) as described above. pFR-Luc reporter (Stratagene) encoding firefly luciferase gene driven by minimal promoter linked to 5 concatamerized GAL4 binding sites (UAS) was co-transfected at 100 ng/well. As a positive control, the reporter was also co-transfected with a plasmid encoding GAL4-CREB fusion protein (Stratagene) alone or in the presence of pFC-PKA an expression construct encoding catalytic subunit of protein kinase A (Stratagene) to activate the CREB kinase inducible activation domain. Fold induction was compared to the reporter's activity measured in the cells transfected with pCMV-BD an expression vector carrying GAL4 DNA binding domain only. […]"}, "[2]": {"tested_on": "GAL4-CREB fusion protein", "assay": "GAL4-CREB activation assay in HLR cell line", "details": "HLR cell line with integrated pFR-Luc reporter, normalized to pCMV-BD vector", "procedure": "To determine if CREAP proteins can directly activate CREB1 protein, the expression constructs of CREAP1, CREAP2 and CREAP3 were transfected individually or with GAL4-CREB plasmid (Stratagene) into HLR cell line (Stratagene) carrying genomic DNA integrated copies of pFR-Luc reporter. Briefly, HLR cells were maintained per manufacturer's instructions. Selected plasmids and either empty vector (pCMV-BD) or GAL4-CREB plasmid were transfected at 75 ng/well using Fugene6 transfection reagent (Roche) as described above. As a positive control pFC-PKA an expression construct encoding catalytic subunit of protein kinase A (Stratagene) was also co-trasfected with GAL4-CREB. Fold of activation was compared to the reporter's activity measured in the cells transfected with empty vector.\nThe ability of full length CREAP1, CREAP2 and CREAP3 to induce the activity of GAL4-CREB fusion protein (Stratagene) was tested. The data presented are normalized to the value seen with pCMV-BD vector. […] Note the fold induction obtained with positive control is lower when compared to the data from Table 6 when all the plasmids including the reporter were transiently transfected."}, "[3]": {"tested_on": "human IL-8 promoter", "assay": "pGL2-IL-8p-Luc reporter inducibility in HEK 293 cells", "details": "HEK 293 cells treated with 50 ng/ml for 16 hours", "procedure": "A luciferase reporter controlled by a 1.5 kB IL-8 promoter containing fragment of human IL-8 promoter was tested for inducibility by known regulators of cytokine-mediated gene expression. pNF-κB-Luc (BD Biosciences) and pGL2-IL-8p-Luc reporters were co-transfected into HEK 293 cells with expression constructs encoding known activators of the NF-κB pathway, truncated MEKK (AA 360-672) (Stratagene) and a full length TRAF6 cDNA made according to conventional methods using a proprietary clone collection. Cells co-transfected with empty pCMV-Sport6 vector were either left untreated or treated with TNFα (50 ng/ml, for 16 hours). Luciferase activity was measured 48 hours post transfection. The pNF-κB-Luc reporter was used as a positive control."}, "[4]": {"tested_on": "secreted IL-8 protein from HeLa cells", "assay": "IL-8 Elisa assay in HeLa cells", "details": "after transfection", "procedure": "HeLa cells are transfected with DNA samples selected from the group of sequence verified and confirmed hits at 100 ng per well in 96 well plates (Costar) using the protocol described above. DNA samples designated as co-activators are co-transfected at 25 ng per well. Empty vector pCMV-Sport6 is used as a negative control. 72 hours post-transfection IL-8 content is measured in the cell growth media in prediluted aliquots corresponding to 1 to 5 μl of conditioned growth media using an IL-8 Elisa kit (Sigma) following the provided protocol. As a positive control, growth media is collected from the cells transfected with empty vector and treated with IL-1β and TNFα (R&D Systems) at 5 ng/ml and 50 ng/ml respectively for 16 hours prior to collection of the growth media for the IL-8 assay."}}, "data": [{"substance": "GAL4-CREB: plasmid encoding GAL4-CREB fusion protein (Stratagene) [reference compound]", "values": [{"measurement": "Fold Induction", "setting": "[1]", "result": 7.66}, {"measurement": "Fold Induction", "setting": "[2]", "result": 75.55}]}, {"substance": "TNFα [reference compound]", "values": [{"measurement": "increase of IL-8 promoter-reporter activity", "setting": "[3]", "result": 4.7, "unit": "times"}]}, {"substance": "relA: subunit of NF-κB transcription factor, expression construct [reference compound]", "values": [{"measurement": "accumulation of secreted IL-8 protein", "setting": "[4]", "result": "induced small increases"}]}]}
